Measurements published in patent US20200062863A1 (CSL BEHRING, published 2020).

How the values were obtained:
[1] = target: T1, recombinant wild-type murine Factor XII (Mu-FXII) with C-terminal 8xHis-tag (mouse, UniProt Q80YC5 20-597); test: Western blot, non-reducing
T1 construct: cDNA of the entire Mu-FXII protein (GenBank NM_021489) expressed in Freestyle 293 cells, culture supernatant used; also called recombinant murine FXII; wild-type Mu-FXII
T1 sequence: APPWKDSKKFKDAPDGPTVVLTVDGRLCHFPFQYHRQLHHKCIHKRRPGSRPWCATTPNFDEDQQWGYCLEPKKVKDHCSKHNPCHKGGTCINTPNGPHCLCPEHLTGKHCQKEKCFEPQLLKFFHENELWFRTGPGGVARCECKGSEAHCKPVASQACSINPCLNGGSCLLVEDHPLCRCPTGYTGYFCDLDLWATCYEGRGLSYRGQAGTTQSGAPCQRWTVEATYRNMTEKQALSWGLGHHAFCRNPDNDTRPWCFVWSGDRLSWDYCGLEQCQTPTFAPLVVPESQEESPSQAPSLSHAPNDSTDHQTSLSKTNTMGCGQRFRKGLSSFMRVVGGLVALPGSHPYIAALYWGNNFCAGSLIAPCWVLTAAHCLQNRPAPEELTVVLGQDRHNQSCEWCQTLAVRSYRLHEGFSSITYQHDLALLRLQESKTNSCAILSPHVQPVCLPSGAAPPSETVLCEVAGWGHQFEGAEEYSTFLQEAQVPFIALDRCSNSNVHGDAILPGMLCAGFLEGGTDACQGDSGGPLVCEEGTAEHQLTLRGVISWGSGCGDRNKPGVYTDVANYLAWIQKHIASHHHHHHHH
Experimental: (§1) Proteins were then transferred electrophoretically onto nitrocellulose filters and blocked for 1 hour in 5% Milk powder in Tris-buffered saline with 0.05% Tween-20 (TTBS). Filters were then incubated for 1 hour with either 3F7 mAb or an anti-His mAb 3H3 (both at […] in TTBS with 5% Milk powder), washed thoroughly with TTBS, then incubated for a further hour with anti-human IgG-FITC or anti-mouse IgG-FITC, respectively (Millipore, USA; both at 0.25 mg/ml in TTBS with 5% Milk powder). Following further washing of membranes in TTBS, Ab-FITC bound proteins were visualized using a Typhoon variable mode analyzer (GE Healthcare, USA).

T538A = target: T2, T538A; test: Western blot of culture supernatant (non-reducing SDS-PAGE) probed with 3F7 mAb, anti-human IgG-FITC
T2 construct: also called Mu-FXII T538A mutant with C-terminal 8xHis-tag; mutant m)
T2 single chain: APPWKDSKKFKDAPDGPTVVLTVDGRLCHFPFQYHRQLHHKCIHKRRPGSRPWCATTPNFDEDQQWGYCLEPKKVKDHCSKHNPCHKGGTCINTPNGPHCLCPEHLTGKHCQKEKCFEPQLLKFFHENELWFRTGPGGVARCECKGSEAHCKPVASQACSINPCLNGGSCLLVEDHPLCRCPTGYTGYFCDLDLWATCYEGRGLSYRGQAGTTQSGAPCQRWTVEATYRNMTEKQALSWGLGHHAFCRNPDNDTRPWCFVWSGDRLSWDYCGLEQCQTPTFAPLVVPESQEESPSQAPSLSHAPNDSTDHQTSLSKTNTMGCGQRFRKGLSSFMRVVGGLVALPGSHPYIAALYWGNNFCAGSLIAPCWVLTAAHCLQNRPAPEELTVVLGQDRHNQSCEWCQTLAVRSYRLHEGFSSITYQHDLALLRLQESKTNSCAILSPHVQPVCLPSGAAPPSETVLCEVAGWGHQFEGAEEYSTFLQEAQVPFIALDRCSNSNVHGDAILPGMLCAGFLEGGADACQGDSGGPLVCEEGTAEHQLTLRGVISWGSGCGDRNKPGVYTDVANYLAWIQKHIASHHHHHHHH
Experimental: as §1

A589D = target: T3, A589D; test: as above
T3 construct: also called Mu-FXII A589D mutant with C-terminal 8xHis-tag; mutant n)
T3 single chain: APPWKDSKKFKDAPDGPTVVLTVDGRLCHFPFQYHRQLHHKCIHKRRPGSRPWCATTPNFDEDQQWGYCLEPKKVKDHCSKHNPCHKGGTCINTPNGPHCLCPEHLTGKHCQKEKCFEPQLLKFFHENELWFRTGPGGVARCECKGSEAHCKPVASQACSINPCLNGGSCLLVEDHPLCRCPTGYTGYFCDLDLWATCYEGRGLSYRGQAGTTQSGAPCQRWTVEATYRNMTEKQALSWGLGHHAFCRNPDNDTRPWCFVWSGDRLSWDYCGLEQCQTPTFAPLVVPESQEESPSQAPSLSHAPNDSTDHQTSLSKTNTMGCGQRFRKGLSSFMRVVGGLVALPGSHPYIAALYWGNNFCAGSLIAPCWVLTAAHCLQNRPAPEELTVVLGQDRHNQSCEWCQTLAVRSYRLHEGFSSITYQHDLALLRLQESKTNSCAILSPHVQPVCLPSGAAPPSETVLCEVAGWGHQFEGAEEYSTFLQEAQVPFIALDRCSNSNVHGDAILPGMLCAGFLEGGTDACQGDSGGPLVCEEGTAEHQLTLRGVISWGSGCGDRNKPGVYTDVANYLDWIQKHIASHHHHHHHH
Experimental: as §1

R427H = target: T4, R427H; test: as above
T4 construct: also called Mu-FXII R427H mutant with C-terminal 8xHis-tag; mutant e)
T4 single chain: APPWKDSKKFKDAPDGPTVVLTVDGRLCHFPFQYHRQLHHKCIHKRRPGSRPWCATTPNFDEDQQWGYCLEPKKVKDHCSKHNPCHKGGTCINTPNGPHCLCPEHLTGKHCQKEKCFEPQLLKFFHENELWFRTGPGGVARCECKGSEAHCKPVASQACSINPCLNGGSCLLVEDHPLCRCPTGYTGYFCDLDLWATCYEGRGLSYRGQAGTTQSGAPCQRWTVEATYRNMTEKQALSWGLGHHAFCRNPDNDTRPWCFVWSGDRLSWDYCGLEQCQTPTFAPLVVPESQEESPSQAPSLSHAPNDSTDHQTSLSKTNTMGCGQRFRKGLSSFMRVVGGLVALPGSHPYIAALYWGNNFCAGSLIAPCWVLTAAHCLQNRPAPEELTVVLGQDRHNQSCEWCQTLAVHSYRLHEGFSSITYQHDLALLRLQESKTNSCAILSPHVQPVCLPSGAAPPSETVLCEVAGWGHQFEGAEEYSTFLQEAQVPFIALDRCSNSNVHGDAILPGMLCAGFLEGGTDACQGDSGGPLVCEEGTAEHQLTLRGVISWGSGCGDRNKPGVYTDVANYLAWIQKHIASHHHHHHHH
Experimental: as §1

Measured: binding result

B1: monoclonal antibody 3F7 (fully human IgG4/lambda) (antibody, V domains shown)
VH: EVQLLESGGGLVQPGGSLRLSCAASGFTFSKYIMQWVRQAPGKGLEWVSGIRPSGGTTVYADSVKGRFTISRDNSKNTLYLQMNSLRAEDTAVYYCARALPRSGYLISPHYYYYALDVWGQGTTVTVSS
VL: QSELTQPPSASGTPGQRVTISCSGSSSNIGRNYVYWYQQVPGTAPKLLIYSNNQRPSGVPDRFSGSKSGTSASLVISGLRSEDEADYYCAAWDASLRGVFGGGTKLTVLG
notes: also called 3F7 mAb; MAb 3F7
binds: all assays above
